Drawing on publication PMC6092110, “Binding of Dickkopf-3 to CXCR7 Enhances Vascular Progenitor Cell Migration and Degradable Graft Regeneration” (Circulation Research, 2018), this text covers Kd for one molecule.

The target in the assay is T1, CXCR7 (HA tagged) overexpressed in HEK 293T cells (UniProt P56485 1-362).
T1 construct: CXCR7 (C-X-C chemokine receptor type 7), HA tagged, overexpressed from an expression plasmid in HEK 293T cells; source: HEK 293T, transfected, in lysate
As to the kind of experiment: ELISA; saturation binding: lysates of HEK 293T cells overexpressing the receptor loaded onto high-affinity-binding ELISA plates coated with anti-HA antibody; serial dilutions of AP-conjugated ligand (or AP alone); AP activity read; Scatchard analysis; n=3. Particulars: one partner purified. (In an ELISA, binding on a coated surface is turned into a signal by an enzyme label.)

T1 sequence (P56485 whole entry): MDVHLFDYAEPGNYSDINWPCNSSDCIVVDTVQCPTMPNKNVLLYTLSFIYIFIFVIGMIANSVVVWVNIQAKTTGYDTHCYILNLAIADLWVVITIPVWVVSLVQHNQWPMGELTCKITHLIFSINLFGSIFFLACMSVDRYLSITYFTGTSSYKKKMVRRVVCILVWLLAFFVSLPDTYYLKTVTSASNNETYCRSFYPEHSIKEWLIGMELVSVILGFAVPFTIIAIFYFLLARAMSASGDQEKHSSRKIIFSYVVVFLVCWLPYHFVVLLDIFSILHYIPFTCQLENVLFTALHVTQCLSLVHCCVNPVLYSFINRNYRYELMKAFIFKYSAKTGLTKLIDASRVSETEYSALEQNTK

B1: Dkk3-AP (Dkk3 conjugated with alkaline phosphatase) (ligand)
chain: not shown
As a reminder, the Kd is the free concentration of one partner at which half of the binding sites on the other are occupied at equilibrium, for simple one-to-one binding. The molecule B1 yielded a Kd of 14.1 nM.
